Assays:
[1] = molecular target: T1, MTR4 (full length) (human, UniProt P42285 1-1042); assay: cryo-EM structure; NEXT^L at 2 μM with equimolar 5'-hairpin-U60 RNA and 2 mM AMPPNP, 20 mM HEPES-NaOH pH 7.5, 50 mM NaCl, 2 mM DTT, 2 mM MgCl2; cross-linked with 0.03% glutaraldehyde; conditions: both partners purified
T1 construct: MTR4, human, full length; also called MTR4A; MTR4B; not shown: His6, N-terminal, cleaved; GST, N-terminal, cleaved
T1 sequence (looked up): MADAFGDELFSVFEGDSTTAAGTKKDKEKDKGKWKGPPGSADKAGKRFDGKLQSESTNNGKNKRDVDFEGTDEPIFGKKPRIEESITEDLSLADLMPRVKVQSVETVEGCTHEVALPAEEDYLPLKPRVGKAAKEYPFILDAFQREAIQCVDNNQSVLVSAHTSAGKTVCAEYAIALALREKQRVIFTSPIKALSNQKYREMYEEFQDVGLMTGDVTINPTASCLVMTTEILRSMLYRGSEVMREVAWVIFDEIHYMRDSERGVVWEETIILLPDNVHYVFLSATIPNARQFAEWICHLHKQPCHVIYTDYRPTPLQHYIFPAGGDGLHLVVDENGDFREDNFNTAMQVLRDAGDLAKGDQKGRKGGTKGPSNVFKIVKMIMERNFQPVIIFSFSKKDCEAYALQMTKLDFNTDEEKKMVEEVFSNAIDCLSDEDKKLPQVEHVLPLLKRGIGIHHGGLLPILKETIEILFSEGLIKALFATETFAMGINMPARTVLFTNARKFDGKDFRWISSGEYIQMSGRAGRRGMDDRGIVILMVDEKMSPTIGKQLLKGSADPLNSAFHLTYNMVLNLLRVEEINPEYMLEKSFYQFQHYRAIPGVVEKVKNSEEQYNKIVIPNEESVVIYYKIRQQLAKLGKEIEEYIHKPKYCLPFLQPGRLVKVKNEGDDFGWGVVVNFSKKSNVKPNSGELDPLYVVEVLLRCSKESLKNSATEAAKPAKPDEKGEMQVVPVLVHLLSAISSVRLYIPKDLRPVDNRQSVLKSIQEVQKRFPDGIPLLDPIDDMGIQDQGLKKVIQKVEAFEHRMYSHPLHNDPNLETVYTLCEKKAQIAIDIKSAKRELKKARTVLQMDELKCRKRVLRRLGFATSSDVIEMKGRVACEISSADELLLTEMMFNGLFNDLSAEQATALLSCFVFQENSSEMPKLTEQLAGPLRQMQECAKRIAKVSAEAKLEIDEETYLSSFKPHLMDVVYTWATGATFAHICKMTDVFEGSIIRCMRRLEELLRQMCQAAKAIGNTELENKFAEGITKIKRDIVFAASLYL

[2] = molecular target: T1, MTR4 (full length); assay: SEC; pre-assembled complexes of full-length MTR4, RBM7(RRM) and N-terminally truncated ZCCHC8 constructs ending at 337; Superdex 200 Increase 3.2/300; 20 mM Hepes-NaOH pH 7.5, 150 mM NaCl, 2 mM DTT; 300 pmol in 30 μL injected; peak fractions on SDS-PAGE; conditions: both partners purified
[3] = molecular target: the molecule itself; assay: as above
[4] = molecular target: T2, eYFP-(GS)3-MTR4(75-1042) (human, UniProt P42285 75-1042); assay: MST
T2 chain: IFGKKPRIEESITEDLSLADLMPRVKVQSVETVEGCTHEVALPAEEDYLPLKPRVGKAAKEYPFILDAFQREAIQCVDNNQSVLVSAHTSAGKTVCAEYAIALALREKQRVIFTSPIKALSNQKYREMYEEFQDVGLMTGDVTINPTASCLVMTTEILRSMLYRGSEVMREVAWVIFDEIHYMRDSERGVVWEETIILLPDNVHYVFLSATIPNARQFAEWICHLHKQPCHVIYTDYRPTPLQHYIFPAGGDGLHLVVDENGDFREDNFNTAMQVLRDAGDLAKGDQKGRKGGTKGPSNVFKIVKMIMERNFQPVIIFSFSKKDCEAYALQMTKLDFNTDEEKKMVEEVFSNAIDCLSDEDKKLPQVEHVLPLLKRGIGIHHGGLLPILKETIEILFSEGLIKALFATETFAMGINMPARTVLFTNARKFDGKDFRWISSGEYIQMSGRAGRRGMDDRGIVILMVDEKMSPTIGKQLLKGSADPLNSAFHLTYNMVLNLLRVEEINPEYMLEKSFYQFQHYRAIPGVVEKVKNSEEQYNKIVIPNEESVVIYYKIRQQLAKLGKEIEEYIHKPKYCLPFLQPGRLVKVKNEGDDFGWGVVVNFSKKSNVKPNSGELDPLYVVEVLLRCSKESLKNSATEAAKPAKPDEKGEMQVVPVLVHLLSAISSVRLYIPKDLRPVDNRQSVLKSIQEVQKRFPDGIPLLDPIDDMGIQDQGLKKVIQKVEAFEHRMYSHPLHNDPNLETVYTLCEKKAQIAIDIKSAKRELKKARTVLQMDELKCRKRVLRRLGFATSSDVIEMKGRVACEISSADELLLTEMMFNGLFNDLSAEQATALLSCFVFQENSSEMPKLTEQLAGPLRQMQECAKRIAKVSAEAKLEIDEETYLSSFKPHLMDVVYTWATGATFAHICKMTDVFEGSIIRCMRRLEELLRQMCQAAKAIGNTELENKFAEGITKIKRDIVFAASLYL

[5] = molecular target: T1, MTR4 (full length); assay: cryo-EM structure; NEXT^S at 15 μM with 1.2 molar excess RNA-U20 and 2 mM AMPPNP, 20 mM HEPES-NaOH pH 7.5, 150 mM NaCl, 2 mM DTT, 2 mM MgCl2; cross-linked with 1 mM BS3; conditions: both partners purified
[6] = molecular target: the molecule itself; assay: as above
[7] = molecular target: T3, eYFP-(GS)3-MTR4(75-1042) (human, UniProt P42285 75-1042); assay: MST; eYFP-(GS)3-MTR4(75-1042) fixed at 50 nM, increasing ZCCHC8/RBM7; 50 mM HEPES-NaOH pH 7.5, 150 mM NaCl, 2 mM DTT, 10% glycerol, 0.1% Pluronic F-127; room temperature; triplicates; conditions: both partners purified
T3 construct: MTR4, human, residues 75-1042, joined to eYFP by a (GS)3 linker; also called eYFP-tagged MTR4; source: E. coli BL21 Star (DE3) pRARE, purified; not shown: eYFP, N-terminal, kept
T3 sequence (looked up): T2 chain

B1: ZCCHC8 deletion mutant Δ416-506 (natural protein, human)
chain: MAAEVYFGDLELFEPFDHPEESIPKPVHTRFKDDDGDEEDENGVGDAELRERLRQCEETIEQLRAENQELKRKLNILTRPSGILVNDTKLDGPILQILFMNNAISKQYHQEIEEFVSNLVKRFEEQQKNDVEKTSFNLLPQPSSIVLEEDHKVEESCAIKNNKEAFSVVGSVLYFTNFCLDKLGQPLLNENPQLSEGWEIPKYHQVFSHIVSLEGQEIQVKAKRPKPHCFNCGSEEHQMKDCPMPRNAARISEKRKEYMDACGEANNQNFQQRYHAEEVEERFGRFKPGVISEELQDALGVTDKSLPPFIYRMRQLGYPPGWLKEAELENSGLALYDGKDGTDGETEVGEIQQNKSVTYDLSKLVNYPGFNISTPRGIPDEWRIFGSIPMQACQQKDVFANYLTSNFQAPGVKSGSGAVDEDALTLEELEEQQRRIWAALEQAESVNSDSDVPVDTPLTGNSVASSPCPNELDLPVPEGKTSEKQTLDEPEVPEIFTKKSEAGHASSPDSEVTSLCQKEKAELAPVNTEGALLDNGSVVPNCDISNGGSQKLFPADTSPSTATKIHSPIPDMSKFATGITPFEFENMAESTGMYLRIRSLLKNSPRNQQKNKKASE
notes: ZCCHC8, human, deletion mutant lacking residues 416-506 but still including the C-terminal domain; Construct adapted from Puno and Lima (2018); also called ZCCHC8^L; hZCCHC8(Δ416-506); source: E. coli BL21 Star (DE3) pRARE, co-expressed and co-purified with RBM7(1-98); not shown: His6, N-terminal, cleaved; SUMO, N-terminal, cleaved
B1: binds [1].

B2: ZCCHC8 (residues 177-337) (domain or fragment, human, UniProt Q6NZY4 177-337, looked up)
chain: NFCLDKLGQPLLNENPQLSEGWEIPKYHQVFSHIVSLEGQEIQVKAKRPKPHCFNCGSEEHQMKDCPMPRNAARISEKRKEYMDACGEANNQNFQQRYHAEEVEERFGRFKPGVISEELQDALGVTDKSLPPFIYRMRQLGYPPGWLKEAELENSGLALYD
notes: source: E. coli BL21 Star (DE3) pRARE, co-expressed and co-purified with RBM7(1-98); not shown: His6, N-terminal, cleaved; GST, N-terminal, cleaved
B2: binds [2].

B3: ZCCHC8 (residues 91-337) (domain or fragment, human, UniProt Q6NZY4 91-337, looked up)
chain: DGPILQILFMNNAISKQYHQEIEEFVSNLVKRFEEQQKNDVEKTSFNLLPQPSSIVLEEDHKVEESCAIKNNKEAFSVVGSVLYFTNFCLDKLGQPLLNENPQLSEGWEIPKYHQVFSHIVSLEGQEIQVKAKRPKPHCFNCGSEEHQMKDCPMPRNAARISEKRKEYMDACGEANNQNFQQRYHAEEVEERFGRFKPGVISEELQDALGVTDKSLPPFIYRMRQLGYPPGWLKEAELENSGLALYD
notes: source: E. coli BL21 Star (DE3) pRARE, co-expressed and co-purified with RBM7(1-98); not shown: His6, N-terminal, cleaved; GST or SUMO, N-terminal, cleaved
B3: binds [2]; binds [3].

B4: dimeric ZCCHC8(41-337)/RBM7(RRM) (complex)
chain 1: ENGVGDAELRERLRQCEETIEQLRAENQELKRKLNILTRPSGILVNDTKLDGPILQILFMNNAISKQYHQEIEEFVSNLVKRFEEQQKNDVEKTSFNLLPQPSSIVLEEDHKVEESCAIKNNKEAFSVVGSVLYFTNFCLDKLGQPLLNENPQLSEGWEIPKYHQVFSHIVSLEGQEIQVKAKRPKPHCFNCGSEEHQMKDCPMPRNAARISEKRKEYMDACGEANNQNFQQRYHAEEVEERFGRFKPGVISEELQDALGVTDKSLPPFIYRMRQLGYPPGWLKEAELENSGLALYD
chain 2: MGAAAAEADRTLFVGNLETKVTEELLFELFHQAGPVIKVKIPKDKDGKPKQFAFVNFKHEVSVPYAMNLLNGIKLYGRPIKIQFRSGSSHAPQDVSLS
Work on B4 yielded a Kd [4] of 120 nM.

B5: ZCCHC8 (residues 41-337) (domain or fragment, human, UniProt Q6NZY4 41-337, looked up)
chain: B4 chain 1
notes: also called ZCCHC8^S; not shown: His6, N-terminal, cleaved; GST, N-terminal, cleaved
With B5 the binding result [5] was “binds” and the “stoichiometry N” value [6] was 2.

B6: monomeric ZCCHC8(177-337)/RBM7(RRM) (complex, human)
chain 1: B2 chain
chain 2: B4 chain 2
notes: RBM7, human, residues 1-98 with the RRM domain; also called monomeric ZCCHC8-RBM7 unit; source: E. coli BL21 Star (DE3) pRARE, co-expressed and co-purified; not shown: His6, N-terminal, cleaved; GST, N-terminal, cleaved; Z tag or SUMO, N-terminal, cleaved; copies: 1 + 1
B6 was tested, and the Kd [4] was 540 nM and the binding result [7] was “binds”.

From article PMC9278407, “Structure and regulation of the nuclear exosome targeting complex guides RNA substrates to the exosome” (Molecular Cell, 2022)
